In patent US20150191709, “MODIFIED HELICASES” (OXFORD NANOPORE TECHNOLOGIES LIMITED, published 2015):

T1: Hel308 Mbu(E284C/S615C)-bismaleimidePEG11 (Methanococcoides burtonii, UniProt Q12WZ6 SEQ:1-760, E284C/S615C)
T1 sequence: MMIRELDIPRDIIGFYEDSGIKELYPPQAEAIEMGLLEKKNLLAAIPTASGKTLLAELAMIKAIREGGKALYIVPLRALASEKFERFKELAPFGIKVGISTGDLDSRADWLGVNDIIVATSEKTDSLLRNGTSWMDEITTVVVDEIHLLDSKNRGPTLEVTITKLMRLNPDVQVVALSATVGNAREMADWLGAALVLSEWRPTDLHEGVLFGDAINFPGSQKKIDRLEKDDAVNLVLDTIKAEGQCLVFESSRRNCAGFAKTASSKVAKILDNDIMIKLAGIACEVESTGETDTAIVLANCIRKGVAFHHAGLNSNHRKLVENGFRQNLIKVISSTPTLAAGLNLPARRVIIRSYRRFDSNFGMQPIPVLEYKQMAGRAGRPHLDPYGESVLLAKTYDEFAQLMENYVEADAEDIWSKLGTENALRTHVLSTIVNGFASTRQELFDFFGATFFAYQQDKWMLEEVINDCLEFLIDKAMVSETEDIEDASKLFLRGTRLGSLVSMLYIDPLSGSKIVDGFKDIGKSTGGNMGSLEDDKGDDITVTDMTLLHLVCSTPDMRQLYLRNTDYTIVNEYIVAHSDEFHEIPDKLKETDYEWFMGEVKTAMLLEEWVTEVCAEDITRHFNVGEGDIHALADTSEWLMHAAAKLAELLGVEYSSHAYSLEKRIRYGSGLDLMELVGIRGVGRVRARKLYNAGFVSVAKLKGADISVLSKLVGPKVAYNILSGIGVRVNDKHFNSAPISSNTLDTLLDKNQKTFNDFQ

T2: Hel308 Mbu(E284C/S615C)-bismaleimidePEG3 (Methanococcoides burtonii, UniProt Q12WZ6 SEQ:1-760, E284C/S615C)
T2 sequence: T1 sequence

B1: 80 bp blocker processivity substrate (dsDNA)
DNA 1: TCGCTGCTCCACAGGTCTCAGCTTGAGCAGCGAAAATAAGAACATTATGATCAGTAGGAGCACTACGACCTTTGTTCTGGTGCTCGTCCGGGCGCCCAAAGTGGAGCGAGTGCCCCC
DNA 2: GCACTCGCTCCACTTTGGGCGCCCGGACGAGCACCAGAACAAAGGTCGTAGTGCTCCTACTGATCATAATGTTCTTATTT
DNA 3: TCGCTGCTCAAGCTGAGACCTGTGGAGCAGCGA

What was measured:
[1] = molecular target: Heat treated Hel308 Mbu-E284Faz E284Faz (Methanococcoides burtonii) (UniProt Q12WZ6); conditions: four nitroindoles between SEQ 155 and SEQ 154; nanopore; 500 nM, 960 mM KCl, 10 mM MgCl2, 1 mM ATP
[2] = molecular target: Hel308 Mbu-E284Faz E284Faz (Methanococcoides burtonii) (UniProt Q12WZ6); conditions: four nitroindoles between SEQ 155 and SEQ 154; nanopore; 100 nM, 960 mM KCl, 10 mM MgCl2, 1 mM ATP
[3] = molecular target: T1, Hel308 …; assay: fluorescence unwinding; increased processivity; 400 mM NaCl, 1 mM ATP, 10 mM MgCl2; conditions: tags: C284 and C615 crosslinked by bismaleimidePEG11 (closed); 3' ssDNA overhang, 80 and 33 bp duplex sections
Text: (§1) The fluorescent probe is designed in such a way that its 5′ and 3′ ends are self-complementary and thus form a kinetically-stable hairpin once displaced, preventing the probe from re-annealing to the template strand (FIG. 3 section D). Upon formation of the hairpin product, the FAM is brought into the vicinity of the BHQ-1 and its fluorescence is quenched. A processive enzyme, capable of displacing the 80 mer “blocker” (SEQ ID NO: 111) and fluorescent (SEQ ID NO: 112, labelled with a carboxyfluorescein (FAM) at its 5′ end a black-hole quencher (BHQ-1) at its 3′ end) strands will therefore lead to a decrease in fluorescence over time. However, if the enzyme has a processivity of less than 80 nt it would be unable to displace the fluorescent strand (SEQ ID NO: 112, labelled with a carboxyfluorescein (FAM) at its 5′ end a black-hole quencher (BHQ-1) at its 3′ end) and, therefore, the “blocker” strand (SEQ ID NO: 111) would reanneal to the major bottom strand (FIG. 3 section E, SEQ ID NO: 110).

[4] = molecular target: T2, Hel308 Mbu(E284C/S615C)-bismaleimidePEG3; assay: as above; conditions: tags: C284 and C615 crosslinked by bismaleimidePEG3 (closed); 3' ssDNA overhang, 80 and 33 bp duplex sections
Text: as §1

Molecule	activity (% movements reaching polyT) [1]	activity (% movements reaching polyT) [2]	binding result [3]	binding result [4]
3.6 kb DNA	71	28		
B1			binds	binds
